The source of these data is EP4335450A1 (Cellemedy Co., Ltd, dated 2024).

The assay addresses T1, human transferrin receptor-Fc tag standard (human, UniProt P02786 89-760, limits assumed).
T1 construct: Coated on the ELISA plate at 2 µg/ml; also called hTfR; not shown: Fc tag
Put plainly: ELISA, hTfR-Fc coated on plate; calculated from an expected saturation point, curve not saturated at 10000 nM.

T1 sequence (P02786 89-760 limits assumed): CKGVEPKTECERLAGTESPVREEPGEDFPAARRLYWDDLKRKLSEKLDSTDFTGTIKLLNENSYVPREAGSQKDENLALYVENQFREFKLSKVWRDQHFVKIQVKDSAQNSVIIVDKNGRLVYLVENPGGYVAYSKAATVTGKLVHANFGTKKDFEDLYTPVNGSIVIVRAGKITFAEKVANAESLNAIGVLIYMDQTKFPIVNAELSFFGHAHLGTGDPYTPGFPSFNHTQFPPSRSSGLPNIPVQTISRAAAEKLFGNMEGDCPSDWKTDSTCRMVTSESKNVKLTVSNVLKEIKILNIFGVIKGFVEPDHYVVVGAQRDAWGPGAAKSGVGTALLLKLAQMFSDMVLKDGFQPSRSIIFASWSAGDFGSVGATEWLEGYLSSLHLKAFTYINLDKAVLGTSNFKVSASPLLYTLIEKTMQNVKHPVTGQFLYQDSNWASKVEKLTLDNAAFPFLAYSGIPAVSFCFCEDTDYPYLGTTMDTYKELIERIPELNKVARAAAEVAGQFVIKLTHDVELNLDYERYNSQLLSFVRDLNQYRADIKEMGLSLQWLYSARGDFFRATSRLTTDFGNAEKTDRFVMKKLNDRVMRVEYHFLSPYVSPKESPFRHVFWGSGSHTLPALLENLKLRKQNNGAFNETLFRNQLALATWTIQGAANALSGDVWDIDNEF

B1: huHF_Mutant2-dual (other)
chain: MTTASTSQVRQNYHAASEAAINAQINLELYASYVYLSMSYYFDRDDVALKNFAKYFLHQSHEEREHAEKLMKLQNQRGGRIALADIQKPDCDDGGSYGSLYAFDIWESGLNAMECALHLEKNVNQSLLALHALATAKNDPHLCDFIETHYLNEQVKAIKELGDHVTNLRKMGAPESGLAEYLFDKHTLGDSDNESMPSFITLASLSTWEGYFDF
notes: Ferritin particle of 24 monomers
As usually defined, the Kd is the constant that tells how readily two partners part at equilibrium. For B1, the Kd was roughly 4.4 µM.
